In publication PMC11661108 (bioRxiv, 2024):
Values joined by “and” are separate entries in the source; they are usually repeats but may differ in a detail not shown here. Equal values may be shown once.

Legend:
Test in all cases: BLI
RBD of SARS-CoV-2 EG.5.1 = RBD of SARS-CoV-2 EG.5.1 (SARS-CoV-2 Omicron EG.5.1, strain, biotin (Avi tag))
RBD of SARS-CoV-2 HV.1 = RBD of SARS-CoV-2 HV.1 (SARS-CoV-2 Omicron HV.1, strain, biotin (Avi tag))
RBD of SARS-CoV-2 BA.1 = RBD of SARS-CoV-2 BA.1 (SARS-CoV-2 Omicron BA.1, strain, biotin (Avi tag))

B1: Fab-52 (Fab, V domains shown)
VH: EVQLVQSGGDLAPPGGSLRLSCEASGIIVSSNYMTWVRQAPGKGLEWVSLIFAGGSTFYADSVKGRFTVSRDNSKNTLYLQMSSLKPEDTAVYFCARDLREMGGLDFWGQGALVTVSS
VL: DIQMTQSPSSVSASIGDTVTITCRASQGIPSWVAWYQQKPGKAPKLLIYGASNLQRGVPSRFSGSGSGTDFTLTISSLQPEDLAVYYCHQSDSLPGIFGGGTKVEIK
Kd (RBD of SARS-CoV-2 EG.5.1): 10 nM and 7 nM
Kd (RBD of SARS-CoV-2 HV.1): 12.2 nM and 9.1 nM
Kd (RBD of SARS-CoV-2 BA.1): 1.1 nM
